Molecular target: T1, human CD20 antigen (human, UniProt P11836 1-297)
T1 construct: whole, on cells; also called MS4A1
T1 sequence (looked up): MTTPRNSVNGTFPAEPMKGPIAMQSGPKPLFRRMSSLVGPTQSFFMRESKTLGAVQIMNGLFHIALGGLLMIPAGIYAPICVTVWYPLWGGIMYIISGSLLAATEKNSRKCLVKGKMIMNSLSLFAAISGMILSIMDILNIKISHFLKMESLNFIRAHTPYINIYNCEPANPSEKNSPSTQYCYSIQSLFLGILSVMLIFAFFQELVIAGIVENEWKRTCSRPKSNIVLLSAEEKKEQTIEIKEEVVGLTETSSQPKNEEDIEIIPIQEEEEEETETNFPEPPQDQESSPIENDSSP
Test: competition flow cytometry against FITC-conjugated fr1F5 (FIG. 6)

B1: framework-re-engineered 1F5 antibody (antibody, V domains shown)
VH: QVQLVASGAEVNKPGASVKVSCKASGYTFTSYNMHWVRQPPGRGLEWIGAIYPGNGDTSYNQKFKGRVTITADKSTSTAYMELSSLRSEDTAVYYCARSHYGSNYVDYFDYWGQGTTVTVSS
VL: DIQLTQSPSSLSASVGDRVTITCRASSSLSFMHWYQQKPGQAPVPVIYATSNLASGVPSRFSGSGSGTEFTLTISSLQPEDFATYFCHQWSSNPLTFGAGTKLTVLR
notes: also called fr1F5
B1: binds.

B2: murine 1F5 antibody (antibody, V domains shown)
VH: QVQLRQPGAELVKPGASVKMSCKASGYTFTSYNMHWVKQTPGQGLEWIGAIYPGNGDTSYNQKFKGKATLTADKSSSTAYMQLSSLTSEDSAVYYCARSHYGSNYVDYFDYWGQGTTLTVSS
VL: QIVLSQSPAILSASPGEKVTMTCRASSSLSFMHWYQQKPGSSPKPWIYATSNLASGVPARFSGSGSGTSYSLTISRVEAEDAATYFCHQWSSNPLTFGAGTKLELKR
notes: Mouse IgG with a kappa light chain, from hybridoma ATCC HB-9645; also called anti-CD20 mAb 1F5
B2: binds.
